From US20140241984A1 (UNITED ARAB EMIRATES UNIVERSITY, published 2014)
Substitutions are numbered along the chain they refer to.

T1: α-synuclein peptide 17 (113-126) (human)
T1 construct: also called Peptide No. 17
T1 peptide: LEDMPVDPDNEAYE

T2: α-synuclein peptide 9 (57-70) (human)
T2 construct: also called Peptide No. 9
T2 peptide: EKTKEQVTNVGGAV

T3: α-synuclein peptide 7 (43-56) (human)
T3 construct: also called Peptide No. 7
T3 peptide: KTKEGVVHGVATVA

T4: α-synuclein peptide 10 (64-77) (human)
T4 construct: also called Peptide No. 10
T4 peptide: TNVGGAVVTGVTAV

T5: α-synuclein peptide 1 (1-14) (human)
T5 construct: also called Peptide No. 1
T5 peptide: MDVFMKGLSKAKEG

T6: α-synuclein peptide 18 (120-133) (human)
T6 construct: also called Peptide No. 18
T6 peptide: PDNEAYEMPSEEGY

T7: α-synuclein peptide 15 (99-112) (human)
T7 construct: also called Peptide No. 15
T7 peptide: QLGKNEEGAPQEGI

T8: α-synuclein peptide 16 (106-119) (human)
T8 construct: also called Peptide No. 16
T8 peptide: GAPQEGILEDMPVD

T9: α-synuclein peptide 2 (8-21) (human)
T9 construct: also called Peptide No. 2
T9 peptide: LSKAKEGVVAAAEK

T10: α-synuclein peptide 6 (36-49) (human)
T10 construct: also called Peptide No. 6
T10 peptide: GVLYVGSKTKEGVV

T11: α-synuclein peptide 14 (92-105) (human)
T11 construct: also called Peptide No. 14
T11 peptide: TGFVKKDQLGKNEE

T12: α-synuclein peptide 8 (50-63) (human)
T12 construct: also called Peptide No. 8
T12 peptide: HGVATVAEKTKEQV

T13: α-synuclein peptide 3 (15-28) (human)
T13 construct: also called Peptide No. 3
T13 peptide: VVAAAEKTKQGVAE

T14: α-synuclein peptide 12 (78-91) (human)
T14 construct: also called Peptide No. 12
T14 peptide: AQKTVEGAGSIAAA

T15: α-synuclein peptide 13 (85-98) (human)
T15 construct: also called Peptide No. 13
T15 peptide: AGSIAAATGFVKKD

T16: α-synuclein peptide 11 (71-84) (human)
T16 construct: also called Peptide No. 11
T16 peptide: VTGVTAVAQKTVEG

T17: IAPP fibrils (UniProt P10997 34-70)
T17 construct: Amyloid fibrils of IAPP spotted in the dot blot; also called islet amyloid polypeptide
T17 peptide (looked up): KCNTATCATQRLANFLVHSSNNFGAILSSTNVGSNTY

T18: fibrils of NAC (61-78) (human)
T18 construct: also called NAC (61-78) (F)
T18 peptide: EQVTNVGGAVVTGVTAVA

T19: IAPP monomers (UniProt P10997 34-70)
T19 peptide (looked up): T17 peptide (looked up)

B1: Syn-F1 (antibody, V domains shown)
VH: DVQLVESGGDLVQPGGSRKLSCAASGFTFSSFGMHWVRQAPEKGLEWVAYINSGSSTIYYADTVKGRFTISRDNPKNTLFLQMTSLRSEDTAMYYCARGNNPGTGYYYSMDYWGQGTSVTVSS
VL: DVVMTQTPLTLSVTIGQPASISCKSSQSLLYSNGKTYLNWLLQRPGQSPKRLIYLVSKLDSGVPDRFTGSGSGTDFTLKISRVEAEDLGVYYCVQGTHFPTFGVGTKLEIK
notes: also called mAb Syn-F1
B2: Syn-F2 (antibody, IgG2a, V domains shown)
VH: B1 VH with D10G, N52S, S109A
VL: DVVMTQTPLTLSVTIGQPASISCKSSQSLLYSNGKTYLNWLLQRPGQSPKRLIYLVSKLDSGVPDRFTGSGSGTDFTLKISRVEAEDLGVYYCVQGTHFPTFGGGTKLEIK
notes: also called mAb Syn-F2
B3: Syn-O1 (antibody, IgG2b, V domains shown)
VH: EVQLVESGGGLVQPKGSLKLSCAASGFTFNTYAMHWVRQAPGKGLEWVARIRSKSSNYATYYADSVKDRFTISRDDSQSMLYLQMNNLKTEDTAMYYCVRPLKWYFDVWGTGTTVTVSS
VL: QIVLTQSPAILSASPGEKVTMTCSASSTVNYMHWYQQKSGTSPKIWIYDTSKLASGVPARFSGSGSWTSYSLTISSMEAEDAATYYCQQWNSNPPTFGAGTKLELK
notes: also called mAb Syn-O1

How the values were obtained:
[1] = target: T1, α-synuclein peptide 17 (113-126); assay: pepscan ELISA
Method: (§1) To confirm the pepscan results using dot blot the mAbs were also tested by Pepscan using ELISA. […] The plate was washed with PBST and 50 μl of substrate (SuperSignal ELISA Femto Maximum Sensitivity Substrate, Thermo Scientific) was added and immediately read the plate using Victor X3 microtiter plate reader. After the ELISA signals were measured, the plate was also exposed onto X-ray film to develop the spots.

[2] = target: T2, α-synuclein peptide 9 (57-70); assay: pepscan ELISA
Method: as §1

[3] = target: T3, α-synuclein peptide 7 (43-56); assay: pepscan ELISA
Method: as §1

[4] = target: T4, α-synuclein peptide 10 (64-77); assay: pepscan ELISA
Method: as §1

[5] = target: T5, α-synuclein peptide 1 (1-14); assay: pepscan ELISA
Method: as §1

[6] = target: T6, α-synuclein peptide 18 (120-133); assay: pepscan ELISA
Method: as §1

[7] = target: T7, α-synuclein peptide 15 (99-112); assay: pepscan ELISA
Method: as §1

[8] = target: T8, α-synuclein peptide 16 (106-119); assay: pepscan ELISA
Method: as §1

[9] = target: T9, α-synuclein peptide 2 (8-21); assay: pepscan ELISA
Method: as §1

[10] = target: T10, α-synuclein peptide 6 (36-49); assay: pepscan ELISA
Method: as §1

[11] = target: T11, α-synuclein peptide 14 (92-105); assay: pepscan ELISA
Method: as §1

[12] = target: T12, α-synuclein peptide 8 (50-63); assay: pepscan ELISA
Method: as §1

[13] = target: T13, α-synuclein peptide 3 (15-28); assay: pepscan ELISA
Method: as §1

[14] = target: T14, α-synuclein peptide 12 (78-91); assay: pepscan ELISA
Method: as §1

[15] = target: T15, α-synuclein peptide 13 (85-98); assay: pepscan ELISA
Method: as §1

[16] = target: T16, α-synuclein peptide 11 (71-84); assay: pepscan ELISA
Method: as §1

IAPP fibrils = target: T17, IAPP fibrils; assay: dot blot
Method: (§2) The membranes were blocked with 5% skimmed milk in PBST (PBS containing 0.05% Tween) and incubated for 1 h at room temperature. […] The membranes were washed and incubated with either 1/20000 diluted goat anti-mouse IgG-HRP (Jackson ImmunoResearch) or 1/10000 diluted goat anti-rabbit IgG-HRP (Jackson Immunoresearch) for 1 h at room temperature. The blots were then developed with Super signal West Pico chemiluminescent substrate.
(§3) C) To test the cross reactivity of our conformational monoclonal antibodies to different fragments of α-synuclein. […] The membranes were washed before incubating with either 1/20000 diluted goat anti-mouse IgG-HRP conjugate (Jackson Immunoresearch) or 1/300000 diluted chicken anti-goat IgG-HRP conjugate (Santa Cruz Biotechnology) for 1 h at room temperature. The blots were then developed with Super signal West Pico chemiluminescent substrate.

β-synuclein monomers = β-synuclein monomers (UniProt Q16143 1-134); assay: dot blot
Method: as §2, §3

A-beta monomers = target: T20, A-beta monomers (UniProt P05067 672-713, limits assumed); assay: dot blot
T20 construct: also called β-amyloid monomers
Method: as §2, §3

fibrils of NAC (61-95) = target: T21, fibrils of NAC (61-95) (human); assay: dot blot
T21 construct: also called NAC region (61-95) (F)
Method: as §2, §3

β-synuclein fibrils = β-synuclein fibrils (UniProt Q16143 1-134); assay: dot blot
Method: as §2, §3

A-beta fibrils = target: T22, A-beta fibrils (UniProt P05067 672-713, limits assumed); assay: dot blot
T22 construct: Amyloid fibrils of A-beta spotted in the dot blot; also called β-amyloid
Method: as §2, §3

fibrils of NAC (61-78) = target: T18, fibrils of NAC (61-78); assay: dot blot
Method: as §2, §3

IAPP monomers = target: T19, IAPP monomers; assay: dot blot
Method: as §2, §3

γ-synuclein monomers = γ-synuclein monomers (UniProt O76070 1-127); assay: dot blot
Method: as §2, §3

γ-synuclein fibrils = γ-synuclein fibrils (UniProt O76070 1-127); assay: dot blot
Chain of γ-synuclein fibrils (O76070 whole entry): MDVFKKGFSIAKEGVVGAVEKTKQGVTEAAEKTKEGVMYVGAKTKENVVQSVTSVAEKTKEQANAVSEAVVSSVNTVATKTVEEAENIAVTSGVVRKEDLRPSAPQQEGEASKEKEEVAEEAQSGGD
Method: as §2, §3

Chain of β-synuclein fibrils (Q16143 whole entry): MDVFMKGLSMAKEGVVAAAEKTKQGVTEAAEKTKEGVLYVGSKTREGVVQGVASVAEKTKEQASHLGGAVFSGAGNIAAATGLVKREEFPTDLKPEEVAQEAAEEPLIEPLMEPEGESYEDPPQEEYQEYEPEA
Chain of β-synuclein monomers (Q16143 whole entry): as above
Chain of γ-synuclein monomers (O76070 whole entry): as the sequence (O76070 whole entry) above

Binder	binding result [1]	binding result [2]	binding result [3]	binding result [4]	binding result [5]	binding result [6]	binding result [7]	binding result [8]	binding result [9]	binding result [10]	binding result [11]	binding result [12]	binding result [13]	binding result [14]	binding result [15]	binding result [16]	binding result (IAPP fibrils)	binding result (β-synuclein monomers)	binding result (A-beta monomers)	binding result (fibrils of NAC (61-95))	further results
B1	no binding (tested: 100 ng/ml antibody, 500 ng/well peptide)	no binding (tested: 100 ng/ml antibody, 500 ng/well peptide)	no binding (tested: 100 ng/ml antibody, 500 ng/well peptide)	no binding (tested: 100 ng/ml antibody, 500 ng/well peptide)	no binding (tested: 100 ng/ml antibody, 500 ng/well peptide)	no binding (tested: 100 ng/ml antibody, 500 ng/well peptide)	no binding (tested: 100 ng/ml antibody, 500 ng/well peptide)	no binding (tested: 100 ng/ml antibody, 500 ng/well peptide)	no binding (tested: 100 ng/ml antibody, 500 ng/well peptide)	no binding (tested: 100 ng/ml antibody, 500 ng/well peptide)	no binding (tested: 100 ng/ml antibody, 500 ng/well peptide)	no binding (tested: 100 ng/ml antibody, 500 ng/well peptide)	no binding (tested: 100 ng/ml antibody, 500 ng/well peptide)	no binding (tested: 100 ng/ml antibody, 500 ng/well peptide)	no binding (tested: 100 ng/ml antibody, 500 ng/well peptide)	no binding (tested: 100 ng/ml antibody, 500 ng/well peptide)	no binding (tested: 50 ng/ml antibody, 50 ng spotted)	no binding (tested: 50 ng spotted)	no binding (tested: 50 ng/ml antibody, 50 ng spotted)	no binding (tested: 50 ng spotted)	binding result (β-synuclein fibrils): no binding (tested: 50 ng spotted); binding result (A-beta fibrils): no binding (tested: 50 ng/ml antibody, 50 ng spotted); binding result (fibrils of NAC (61-78)): no binding (tested: 50 ng spotted); binding result (IAPP monomers): no binding (tested: 50 ng/ml antibody, 50 ng spotted); binding result (γ-synuclein monomers): no binding (tested: 50 ng spotted); binding result (γ-synuclein fibrils): no binding (tested: 50 ng spotted)
B2	no binding (tested: 100 ng/ml antibody, 500 ng/well peptide)	no binding (tested: 100 ng/ml antibody, 500 ng/well peptide)	no binding (tested: 100 ng/ml antibody, 500 ng/well peptide)	no binding (tested: 100 ng/ml antibody, 500 ng/well peptide)	no binding (tested: 100 ng/ml antibody, 500 ng/well peptide)	no binding (tested: 100 ng/ml antibody, 500 ng/well peptide)	no binding (tested: 100 ng/ml antibody, 500 ng/well peptide)	no binding (tested: 100 ng/ml antibody, 500 ng/well peptide)	no binding (tested: 100 ng/ml antibody, 500 ng/well peptide)	no binding (tested: 100 ng/ml antibody, 500 ng/well peptide)	no binding (tested: 100 ng/ml antibody, 500 ng/well peptide)	no binding (tested: 100 ng/ml antibody, 500 ng/well peptide)	no binding (tested: 100 ng/ml antibody, 500 ng/well peptide)	no binding (tested: 100 ng/ml antibody, 500 ng/well peptide)	no binding (tested: 100 ng/ml antibody, 500 ng/well peptide)	no binding (tested: 100 ng/ml antibody, 500 ng/well peptide)	no binding (tested: 50 ng/ml antibody, 50 ng spotted)	no binding (tested: 50 ng spotted)	no binding (tested: 50 ng/ml antibody, 50 ng spotted)	no binding (tested: 50 ng spotted)	binding result (β-synuclein fibrils): no binding (tested: 50 ng spotted); binding result (A-beta fibrils): no binding (tested: 50 ng/ml antibody, 50 ng spotted); binding result (fibrils of NAC (61-78)): no binding (tested: 50 ng spotted); binding result (IAPP monomers): no binding (tested: 50 ng/ml antibody, 50 ng spotted); binding result (γ-synuclein monomers): no binding (tested: 50 ng spotted); binding result (γ-synuclein fibrils): no binding (tested: 50 ng spotted)
B3	no binding (tested: 100 ng/ml antibody, 500 ng/well peptide)	no binding (tested: 100 ng/ml antibody, 500 ng/well peptide)	no binding (tested: 100 ng/ml antibody, 500 ng/well peptide)	no binding (tested: 100 ng/ml antibody, 500 ng/well peptide)	no binding (tested: 100 ng/ml antibody, 500 ng/well peptide)	no binding (tested: 100 ng/ml antibody, 500 ng/well peptide)	no binding (tested: 100 ng/ml antibody, 500 ng/well peptide)	no binding (tested: 100 ng/ml antibody, 500 ng/well peptide)	no binding (tested: 100 ng/ml antibody, 500 ng/well peptide)	no binding (tested: 100 ng/ml antibody, 500 ng/well peptide)	no binding (tested: 100 ng/ml antibody, 500 ng/well peptide)	no binding (tested: 100 ng/ml antibody, 500 ng/well peptide)	no binding (tested: 100 ng/ml antibody, 500 ng/well peptide)	no binding (tested: 100 ng/ml antibody, 500 ng/well peptide)	no binding (tested: 100 ng/ml antibody, 500 ng/well peptide)	no binding (tested: 100 ng/ml antibody, 500 ng/well peptide)	no binding (tested: 50 ng/ml antibody, 50 ng spotted)	no binding (tested: 50 ng spotted)	no binding (tested: 50 ng/ml antibody, 50 ng spotted)	no binding (tested: 50 ng spotted)	binding result (β-synuclein fibrils): no binding (tested: 50 ng spotted); binding result (A-beta fibrils): no binding (tested: 50 ng/ml antibody, 50 ng spotted); binding result (fibrils of NAC (61-78)): no binding (tested: 50 ng spotted); binding result (IAPP monomers): no binding (tested: 50 ng/ml antibody, 50 ng spotted); binding result (γ-synuclein monomers): no binding (tested: 50 ng spotted); binding result (γ-synuclein fibrils): no binding (tested: 50 ng spotted)
